Test results taken from patent publication US20250161478A1, “LINKER PAYLOADS AND CONJUGATES THEREOF” (priority 2021, published 2025).

Biological target: TYRP1 antigen on human melanoma cells (IGR-1, SK-MEL-30, SK-MEL-28) (human) (UniProt P17643)
Test: cell-based or functional assay

“TAAuM (anti-mGP75-maleimidoacetyl-β-Ala-Val-Ser(Glc)-PAB-MMAU), DAR 10 (antibody)” was tested. Which IC50, cell viability (PrestoBlue), IGR-1 cells did it give?
Its IC50, cell viability (PrestoBlue), IGR-1 cells is 1.3 nM.
